Reference: article doi:10.1101/259481 (bioRxiv, 2018)
Read-outs that look alike come from different tables or passages of the source.

T1: recombinant laminin α3_(2928-3150) protein (human, UniProt Q16787 2928-3150)
T1 sequence (looked up): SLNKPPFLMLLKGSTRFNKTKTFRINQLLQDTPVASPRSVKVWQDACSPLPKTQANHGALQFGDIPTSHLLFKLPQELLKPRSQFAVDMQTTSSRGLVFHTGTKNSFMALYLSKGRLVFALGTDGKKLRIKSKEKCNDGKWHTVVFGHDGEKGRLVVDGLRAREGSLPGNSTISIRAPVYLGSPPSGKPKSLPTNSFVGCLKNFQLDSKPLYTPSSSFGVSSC

T2: recombinant human syndecan-4 (human, UniProt P31431 19-145)
T2 sequence (looked up): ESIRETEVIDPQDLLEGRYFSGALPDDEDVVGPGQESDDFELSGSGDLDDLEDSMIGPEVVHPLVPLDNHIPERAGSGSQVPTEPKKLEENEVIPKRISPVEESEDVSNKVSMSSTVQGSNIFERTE

T3: recombinant human syndecan-1 (human, UniProt P18827 23-254)
T3 sequence (looked up): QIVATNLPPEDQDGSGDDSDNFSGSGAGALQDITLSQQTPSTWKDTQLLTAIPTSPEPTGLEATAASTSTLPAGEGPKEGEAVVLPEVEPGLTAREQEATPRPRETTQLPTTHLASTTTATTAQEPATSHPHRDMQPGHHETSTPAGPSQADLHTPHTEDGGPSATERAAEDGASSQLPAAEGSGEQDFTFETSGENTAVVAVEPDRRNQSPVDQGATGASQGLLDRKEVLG

B1: placental growth factor (PlGF)-2 (ligand, human, UniProt P49763-3 19-170, looked up)
chain: LPAVPPQQWALSAGNGSSEVEVVPFQEVWGRSYCRALERLVDVVSEYPSEVEHMFSPSCVSLLRCTGCCGDENLHCVPVETANVTMQLLKIRSGDRPSYVELTFSQHVRCECRPLREKMKPERRRPKGRGKRRREKQRPTDCHLCGDAVPRR
B2: platelet-derived growth factor (PDGF)-BB (ligand, human, UniProt P01127 82-190, looked up)
chain: SLGSLTIAEPAMIAECKTRTEVFEISRRLIDRTNANFLVWPPCVEVQRCSGCCNNRNVQCRPTQVQLRPVQVRKIEIVRKKPIFKKATVTLEDHLACKCETVAAARPVT

Key:
[1] = target: recombinant laminin α3_(2928-3150) protein (human) (UniProt Q16787); test: SPR
laminin-521 = laminin-521 (human, UniProt O15230 36-3695; P55268 33-1798; P11047 34-1609); test: SPR
laminin-111 [2] = target: T4, laminin-111 (human, UniProt P25391 18-3075; P07942 22-1786; P11047 34-1609); test: ELISA
laminin-211 [3] = target: T5, laminin-211 (human, UniProt P24043 23-3122; P07942 22-1786; P11047 34-1609); test: ELISA
[4] = target: T1, recombinant laminin α3_(2928-3150) …; test: ELISA
laminin-421 = laminin-421 (human, UniProt Q16363 25-1823; P55268 33-1798; P11047 34-1609); test: ELISA
laminin-411 = laminin-411 (human, UniProt Q16363 25-1823; P07942 22-1786; P11047 34-1609); test: ELISA
[5] = target: B1; test: ELISA
[6] = target: recombinant human syndecan-2 (human, UniProt P34741 19-144); test: ELISA
Sequence of recombinant human syndecan-2 (P34741 19-144): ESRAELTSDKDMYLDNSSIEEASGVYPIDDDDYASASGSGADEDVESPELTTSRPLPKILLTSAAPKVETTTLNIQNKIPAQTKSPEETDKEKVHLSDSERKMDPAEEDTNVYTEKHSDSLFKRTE

[7] = target: T2, recombinant human syndecan-4; test: ELISA
[8] = target: T3, recombinant human syndecan-1; test: ELISA
laminin-111 [9] = target: T4, laminin-111; test: ELISA; remark: listed apart in the source
laminin-211 [10] = target: T5, laminin-211; test: ELISA; remark: listed apart in the source
[11] = target: T1, recombinant laminin α3_(2928-3150) …; test: SPR
[12] = target: fibroblast growth factor (FGF)-2 (human, UniProt P09038 143-288); test: ELISA
Sequence of fibroblast growth factor (FGF)-2 (P09038 143-288): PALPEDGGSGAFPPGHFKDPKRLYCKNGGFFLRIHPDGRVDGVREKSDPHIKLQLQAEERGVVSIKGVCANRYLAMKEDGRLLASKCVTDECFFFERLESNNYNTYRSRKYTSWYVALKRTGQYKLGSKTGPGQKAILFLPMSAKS

[13] = target: B2; test: ELISA

Row | Kd (laminin-521) | binding result [5] | binding result [6] | binding result [7] | binding result [8] | binding result [12] | binding result [13] | Molecule | further results
1 | 5.8 nM |  |  |  |  |  |  | vascular endothelial growth factor (VEGF)-A165 (ligand) | Kd [1]: 1.2 nM
2 | 12.9 nM |  |  |  |  |  |  | B1 | binding result (laminin-111 [2]): binds; binding result (laminin-211 [3]): binds; binding result [4]: binds; binding result (laminin-421): binds; binding result (laminin-411): binds
3 |  | binds | binds | binds | binds |  |  | TPGLGPRGLQATARKASRRSRQPARHPACML (peptide, UniProt O15230 3300-3330, looked up) [laminin-derived peptide α5_(3300-3330)] | 
4 | 24.2 nM |  |  |  |  |  |  | B2 | binding result (laminin-111 [9]): binds; binding result (laminin-211 [10]): binds; binding result (laminin-421): binds; binding result (laminin-411): binds; Kd [11]: 10.2 nM
5 |  |  |  |  |  | binds |  | PPFLMLLKGSTRFNKTKTFR (peptide, UniProt Q16787 2932-2951, looked up) [laminin-derived peptide α3_(2932-2951)] | 
6 |  | binds |  |  |  | binds | binds | TLPDVGLELEVR (peptide, UniProt O15230 3539-3550, looked up) [laminin-derived peptide α5_(3539-3550)] | 
7 |  | binds | binds | binds | binds | binds | binds | RQRSRPGRWHKVSVRWEKNR (peptide, UniProt O15230 3417-3436, looked up) [laminin-derived peptide α5_(3417-3436)] | 
8 |  | binds | binds | binds | binds | binds | binds | RLVFALGTDGKKLRIKSKEKCNDGK (peptide, UniProt Q16787 3043-3067, looked up) [laminin-derived peptide α3_(3043-3067)] | 
